41 variants from the RNAGym collection of RNA variant scans (doi:10.7554/elife.90254) can be followed below.

The labels stand for the following.
B1: OR4K15 (parent)
chain: GUUAACGGUCAUAGGCCAUGGAAACUAGGAGCACCAUUUCGCUGCCAGUGAAGAAAUGAACAAAGAAAAUCUGGGCCAGGCAGGCAUCAAAAGAAAUAGUCUUGCGCUCAACCAGAAAGUCUGUAAUCAUUUUAAGGGUA

The series covers variants of B1. As to the kind of experiment: self-cleavage, relative activity (ratio to wild type); higher = more cleavage; in vitro, sequencing; the parent is a self-cleaving ribozyme.
For the variant GUUAACGGUCAUAGGCCAUGGAAACUAGGAGCACCAUUUCGCUGCCAGUGAAGAUAUGAACAAAGAAAAUCUGGGCCAGGCAGGCAUCAAAAGAAAUAGUCUUGCGCUCAACCAGAAAGUCUGUAAACAUUUUAAGGGUA [A55U U127A], the self-cleavage was found to be 2.63.

For the variant GUUAACGGUCAUAGGCCAUGGAAACUAGGAGCACCAUUUCGCUGCCAGUGAAGAAAUGAACAAAGAAAAUCUGGGCCAGGCAGGCAUCAAAAGAAAUAGACUUGCGCUCAACCAGAAAGUCUGCAAUCAUUUUAAGGGUA [U100A U124C], the self-cleavage is 0.18.

GUUAACGGUCAUAGGCCAUGGAGACUAGGAGCACCAUUUCGCUGCCAGUGAAGAAAAGAACAAAGAAAAUCUGGGCCAGGCAGGCAUCAAAAGAAAUAGUCUUGCGCUCAACCAGAAAGUCUGUAAUCAUUUUAAGGGUA [A23G U57A]: the self-cleavage was found to be 0.53.

Consider GUUAACGGUCAUAGGCCAUGGAAACUAGGAGCACCAUUUCGCUGCCAGUGAAGAAAUGAACAAAGAAAAUCUGGGCCAGGCAGGCAUCAAAAGAAAUAGUCUUGCGCUCAACCAGAAAGUCUGUACCCAUUUUAAGGGUA [A126C U127C], for which the self-cleavage is 0.21.

Take GUUAACGGUUAUAGGCCAUGGAAACUAGGAGCACCAUUUCGCUGCCAGUGAAGAAAUGAACAAAGAAAAUCUGGGCCAGGCUGGCAUCAAAAGAAAUAGUCUUGCGCUCAACCAGAAAGUCUGUAAUCAUUUUAAGGGUA [C10U A82U]: the self-cleavage worked out at 0.13.

Turning to GUUAACGGUCAUAGGCCAUGGAAACUAGGAGCACCAUUUCGCUGCCAGUGGAGAAAUGAACAAAGAAAAUCUGGGCCAGGCAGGCAUCAAAAGAAAUAGUCUGGCGCUCAACCAGAAAGUCUGUAAUCAUUUUAAGGGUA [A51G U103G], the self-cleavage worked out at 0.05.

For GUUAACGGUCAUAGGCCAUGGAAACUAGGAGCACCAUUUCACUGCCAGUGAAGAAAUGAACAAAGAAAAUCUGGGCCAGGCAGGCAUCAAAAGAAAUAGUCUUGCGCCCAACCAGAAAGUCUGUAAUCAUUUUAAGGGUA [G41A U108C], the self-cleavage was found to be 0.01.

As to GUUAACGGUCAUAGGCCAUGGAAGCUAGGAGCACCAUUUCGCUGCCAGUGAAGAAAUGAACAAAGAAAAUCUGGGCCAGGCAGGCAUCAAAAGAAAUAGUCUUGUGCUCAACCAGAAAGUCUGUAAUCAUUUUAAGGGUA [A24G C105U], the self-cleavage amounted to 0.26.

Consider GUUAACGGUCAUAGGCCAGGGAAACUAGGAGCACCAUUUCGCUGCCAGUGAAGAAAUGAACAAAGAAAAUCUGGGCCAGGCAGGCUUCAAAAGAAAUAGUCUUGCGCUCAACCAGAAAGUCUGUAAUCAUUUUAAGGGUA [U19G A86U], for which the self-cleavage was 0.68.

On to GUUAACGGUCAUAGGCCAUGGAAACUAGAAGCACCAUUUCGCUGCCAGUGAAGAAAUGAACAAAGAAAAUCUGGGCCAGGCAGGCAUCAAAAGAAAUAGUCUUGCGCUCAACCAGAAAGUCUGUAAUCAUUUUAAGGGUA [G29A], for which the self-cleavage stood at 1.82.

As to GUUAACGGUCAUAGGCCAUGGAAACUAGGAGCACCAUUUCGCUGCCAGUGAAGAAAUGAACAAAGAAAAUCUGGGCCAGGCAGGCAUCAAAAGAAAUAGUCUUGGGCUCAACCAGAAAGUCUGUAAUCAUUUUAAGGGUA [C105G], the self-cleavage stood at 0.02.

Regarding GUUAACGGUCAUAGGCCAUGGAGACUAGGAGCACCAUUUCGCUGCCAGUGAAGAAAUGAACAAAGAAAACCUGGGCCAGGCAGGCAUCAAAAGAAAUAGUCUUGCGCUCAACCAGAAAGUCUGUAAUCAUUUUAAGGGUA [A23G U70C], the self-cleavage worked out at 0.64.

GUUAACGGUCAUAGGCCACGGAAACUAGGAGCACCAUUUCGCUGCCAGUGAAGAAAAGAACAAAGAAAAUCUGGGCCAGGCAGGCAUCAAAAGAAAUAGUCUUGCGCUCAACCAGAAAGUCUGUAAUCAUUUUAAGGGUA [U19C U57A]: the self-cleavage stood at 1.21.

Turning to GUUAACGGUCAUAGGCCAUGGAAACUAGGAGCACCAUUUCGCUGCCAGUGAAGAAAUGAACAAAGAAAAUCUGGGCCAGGCAGGCAUCAAAAGAGUUAGUCUUGCGCUCAACCAGAAAGUCUGUAAUCAUUUUAAGGGUA [A95G A96U], the self-cleavage stood at 0.7.

For the variant GUUAACGGUCAUAGGCCAUGGAAACUAGGAGCACCAUUUCGCUGCCAGUGAAGAAAUGAACAAAGAAAAUCUGGGCCAGGCAGGCAUCAAUAGGAAUAGUCUUGCGCUCAACCAGAAAGUCUGUAAUCAUUUUAAGGGUA [A91U A94G], the self-cleavage turned out to be 1.54.

Take GUUAACGGUCAUAGGCCAUGGAAACUAGGAGCACCAUUUCGCUGCCAGUGAAGAAAUGAACAAAGAAAAUCUGGGCCAGGCAGGCAUCAAAAGAAAUAGUCUCGCGCUCAACCAGAAAGUCUGUUAUCAUUUUAAGGGUA [U103C A125U]: the self-cleavage is 1.45.

As for GUUAACGGUCAUAGGCCAUGGAAACUAGGAGCACCAUUUCGCUGCCAGUGAAGAAAUGAACAAAGAAAAUUUGGGCCAGGCAGGCAUCAAAAGAAAUAGUCCUGCGCUCAACCAGAAAGUCUGUAAUCAUUUUAAGGGUA [C71U U102C], the self-cleavage was 0.66.

In the case of GUUAACGGUCAUAGGCCAUGGAAACUAGGAGCACCAUUUCGCUGCCAGUGAAGAAAUGAACAAAGAAAAUCUGGGCCAGGCAGGCAUCAAAAGAAUUAGUCUUGCGCUCAACCAGAAAGUCUGUAAUCAUUUUAAGGUUA [A96U G138U], the self-cleavage was found to be 1.75.

For the variant GUUAACGGUCAUAGGCCGUGGAAACUAGGAGCACCAUUUCGCUGCCAGUGAAGAAAUGAACAAAGAAAAUCUGGGCCAGGCAGGCAUCAAAAGAAAUAGUCUUGCGCUCAACCGGAAAGUCUGUAAUCAUUUUAAGGGUA [A18G A114G], the self-cleavage came to 0.77.

For the variant GUUAACGGUCAUAGGCCAUGGAAACUAGGAGCACCAUUUCGCUGCCAGUGUAGAAAUGAACAAAGAAAAUCUGGGCCAGGCAGGCAUCAAAAGAAAUAGUCUUGCGCUCAACCAGAAAGUCUGUAGUCAUUUUAAGGGUA [A51U A126G], the self-cleavage amounted to 1.46.

On to GUUAACGGUCAUCGGCCAUGGAAACUAGGAGCACCAUUUCGCUGCCAGUGAAGAAAUGAACAAAGAAAAUCUGGGCCAGGCAGGCAUCAAAAGAAAUAGUCUUGCGCUCAACCAGAAAGCCUGUAAUCAUUUUAAGGGUA [A13C U120C], for which the self-cleavage was 1.78.

In the case of GUUAACGGUCAUGGGCCAUGGAAACUAGGAGCACCAUUUCGCUGCCAGUGAAGAAAUGAACAAAGAAAAUCUGGGCCAGGCAGGCAUCAAAAGAAAUAGUCUUGCGCUCAACCAGAAAGUCUGUAAUCAAUUUAAGGGUA [A13G U130A], the self-cleavage amounted to 0.34.

For GUUAACGGUCAUAGGCCAUGGAAACUAGGAGCACCAUUUCGCUGCCAGUGAAGAAAUGAACAAAGAGAAUCUGGGCCAGGCAGGCAUCAAAAGAAAUAGUCUGGCGCUCAACCAGAAAGUCUGUAAUCAUUUUAAGGGUA [A67G U103G], the self-cleavage was determined as 0.05.

In the case of GUUAACGGUCAUAGGCCAUGGAAACUAGGAGCACCAUCUCGCUGCCAGUGAAGAAAUGAACAAAGAAAAUCUGGGCCAGGCAGGCAUUAAAAGAAAUAGUCUUGCGCUCAACCAGAAAGUCUGUAAUCAUUUUAAGGGUA [U38C C88U], the self-cleavage turned out to be 2.51.

Turning to GUUAACGGUCAUAGGCCAUGGAAACUAGGAGCACCAUUUCGCUGCCAGUGAAGAAAUGAACAAAGAAAAUCUGGGCCAGGCAGGCAUCAAAAGAAAUAGUCUUGCGCUCAAUCAGAAAGUCCGUAAUCAUUUUAAGGGUA [C112U U122C], the self-cleavage was found to be 0.01.

On to GUUAACGGUCAUAGGCCAUGGAAACUAGGAGCACCAUUUCGCUGCCAGUGAAGAAAUGAACAAAGAAAAUCUGGGCCAGGCAGGCAUCAAAAGAAAUAGUCUUGCGCUCAACCUGAAAGUCUGUAAUCGUUUUAAGGGUA [A114U A129G], for which the self-cleavage was determined as 0.06.

GUUAACGGUCAUAGGCCAUGGAAACUAGGAGCAUCAUUUCGCUGCCAGUGAAGAAAUGAACAAAGAAAAUCUGGGCCAGGCAGGCAUCAAAAGAAAUAGUCUUGCGCUCAACCAGAAAGUCUGUAAUCAUCUUAAGGGUA [C34U U131C]: the self-cleavage came out at 0.84.

GCUAACGGUCAUAGGCCAUGGAAACUAGGAGCACCAUUUCGCUGCCAGUGAAGAAAUGAACAAAGAAAAUCUGGGCCAGGCAGGCAUCAAAAGAAAUAGUCUUGCGCUCAACCAGAAAGUCAGUAAUCAUUUUAAGGGUA [U2C U122A]: the self-cleavage was determined as 1.85.

Regarding GUUAUCGGUCAUAGGCCAUGGAAACUAGGAGCACCAUUCCGCUGCCAGUGAAGAAAUGAACAAAGAAAAUCUGGGCCAGGCAGGCAUCAAAAGAAAUAGUCUUGCGCUCAACCAGAAAGUCUGUAAUCAUUUUAAGGGUA [A5U U39C], the self-cleavage came out at 1.1.

In the case of GUUAACGGUCAUAGGCCAUGGAAACUAGGAGCACCAUUUCGCUGCCAGUGAAGAAAUGAACAAAGAAAAUCUGGGCCAGGCAGGCAUCAAAAGAAAUAGUCUUGCGCUCAACCAGAAAGACUGUAAUCAUCUUAAGGGUA [U120A U131C], the self-cleavage stood at 1.22.

GUUAACGGUCAUAGGCCAUGGAAACCAGGAGCACCAUUUCGCUGCCAGUGAAGAAAUGAACAAAGAAAAUCUGGGCCAGGCAGGCAUCAAAAGAAAUAGUCUUGCGCUCAACCAGAAAGUCUGUAAUCAUUUUAUGGGUA [U26C A135U]: the self-cleavage was 0.57.

Take GUUAACGGUCAUAGGCCAUGGAAACUAGGAGCACCAUUUCGCUGCCAGUGAAGAAAUGAACAAAGAAAAUCUGGGCCAGGCAGGCAUCAAAAGAAAUAGUCUUGCUCUCAACCAGAAAGUCCGUAAUCAUUUUAAGGGUA [G106U U122C]: the self-cleavage was found to be 0.

Turning to GUUAACGGUCAUAGGCCAUGGAAACUAGGAGCACCAUUCCGCUGCCAGUGAAGAAAUGAACAAAGAAAAUCUGGGCCAGGCAGGCAUCAAAAGAAUUAGUCUUGCGCUCAACCAGAAAGUCUGUAAUCAUUUUAAGGGUA [U39C A96U], the self-cleavage was determined as 1.52.

With GUUAACGGCCAUAGGCCAUGGAAACUAGGAGCACCAUUUCGCUGCCAGUGAAGAAAUGAACAAAGAAAAUCUGGGCCAGGCAGGCUUCAAAAGAAAUAGUCUUGCGCUCAACCAGAAAGUCUGUAAUCAUUUUAAGGGUA [U9C A86U], the self-cleavage was found to be 1.74.

For GUUAACGGUCAUAGGCCAUGGAAACUAGGAGCACCAUUUCCCUGCCAGUGAAGAAAUGAACAAAGAAAAUCUGGGCCAGGCAGGCAUCAAAAGAAAUAGUCUUGCGCUCAACCAGAAAGUCUGUAAUCAUUUUAAGGGAA [G41C U139A], the self-cleavage came to 1.78.

As to GUUAACGGUCAUAGGCCAUGGAAACUAGGAGCACCAUUUCGCUGCCAGUGAUGAAAUGAACAAAGAAAGUCUGGGCCAGGCAGGCAUCAAAAGAAAUAGUCUUGCGCUCAACCAGAAAGUCUGUAAUCAUUUUAAGGGUA [A52U A69G], the self-cleavage worked out at 2.44.

Turning to GUUUACGGUCAUAGGCCAUGGAAACUAGGAGCACCAUUUCGCUGCCAGUGAAGAAAUGAACAAAGAAAAUCUGGGCCAGGCAGGCAUCAAAAGAAAUAGUCUUGCGCUCAACCAGAAAGCCUGUAAUCAUUUUAAGGGUA [A4U U120C], the self-cleavage is 0.54.

As to GUUAACGGUCAUAGGCCAUGGAAACUAGGAGCACCAUUUCGCCGCCAGUGAAGAAAUGAACAAAGAGAAUCUGGGCCAGGCAGGCAUCAAAAGAAAUAGUCUUGCGCUCAACCAGAAAGUCUGUAAUCAUUUUAAGGGUA [U43C A67G], the self-cleavage came out at 1.39.

GUUAACGGUCAUAGGCCAUGGAAACUAGGAGCACCAUUUCGCGGCCAGUGAAGAAAUGAACAAAGAAAAUCUGGGCCAGGCAGGCAUCAAAAGAAAUAGCCUUGCGCUCAACCAGAAAGUCUGUAAUCAUUUUAAGGGUA [U43G U100C]: the self-cleavage is 2.82.

As for GUUAACGGUCAUAGGCCAUGGAAACUAGGAGCACCAUUUCGCCGCCAGUGAAGAAAUGAACUAAGAAAAUCUGGGCCAGGCAGGCAUCAAAAGAAAUAGUCUUGCGCUCAACCAGAAAGUCUGUAAUCAUUUUAAGGGUA [U43C A62U], the self-cleavage was determined as 2.19.

Turning to GUUGACGGUCAUAGGCCAUGGAAACUAGGAGCACCAUUUCGCUGCCAGUGAAGAAAUGAACAAAGAAAAUCUGGGCCAGGCAGGCAUCAAAAGAAAUAGUCUUGCGCUCAGCCAGAAAGUCUGUAAUCAUUUUAAGGGUA [A4G A111G], the self-cleavage worked out at 0.1.
